The supplement of paper PMC10126150
± gives the standard deviation of the averaged measurements.

These sequences were tested on ATP (assay: switch fluorescence ratio, 500 uM ATP over buffer (Cy3 cluster intensity, sum of 5 cycles each) (fold (ratio)); higher = stronger signal-on switching upon ATP binding; sequences stand for … in TCGTCGGCAGCGTCAGATGTGTATAAGAGACAGTTTTTTTTTTTTTTTTTTTTTTTTT…TC). Settings: aptamer strand: ATP DNA aptamer (quencher-CACCTGGGGGAGTATTGCGGAGGAAGG + anchor), 100 nM annealed; ATP concentration: 500 uM.
How it was run: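 Clusters with intensities outside 100-1000 RFU were excluded. The remaining Cy3-labelled switching-strand clusters on a modified Illumina MiSeq flow-cell had been annealed to 100 nM quencher-labelled ATP aptamer and imaged in selection buffer, then after 15 min with 500 uM ATP at 22 °C, for five cycles separated by NaOH stripping and re-annealing. The fluorescence ratio, averaged per switch-domain sequence, is each cluster's summed target-cycle Cy3 intensity over its summed buffer-cycle Cy3 intensity.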
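Further: ATP exposure 15 min at 22 °C before imaging.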

In order of falling switch fluorescence ratio:
1. AATTCCTCAG  1.43 ± 0.1
2. AATGCAGTGC  1.26 ± 0.09
3. AATGAAGAAG  1.17 ± 0.22
4. AATTGGGTGC  1.09 ± 0.12
5. AATGCCGGCC  1.08 ± 0.028
6. AATGGCCGCG  1.08 ± 0.11
7. AATTAACGGC  1.07 ± 0.083
8. AATGGCGGCA  1.06 ± 0.078
9. AATGTAGGGA  1.06 ± 0.051
10. AATGGTGAGG  1.05 ± 0.051
11. AATGATAAGC  1.04 ± 0.028
12. AATGTGAGCT  1.04 ± 0.043
13. AATTACCTCG  1.04 ± 0.043
14. AATTCCTCAT  1.04 ± 0.024
15. AATGTAAGGA  1.03 ± 0.065
16. AATTATAATG  1.034 ± 0.0047
17. AATTCAGCAT  1.03 ± 0.036
18. AATTCTCTGT  1.03 ± 0.066
19. AATCTCGTAA  1.02 ± 0.023
20. AATGATTGGA  1.02 ± 0.041
21. AATGCCCGGC  1.02 ± 0.11
22. AATGGCGGGA  1.021 ± 0.0015
23. AATGGCGTAT  1.02 ± 0.029
24. AATGGGGGCT  1.02 ± 0.022
25. AATGTCGGGC  1.02 ± 0.022
26. AATTAGATTT  1.021 ± 0.0055
27. AATTGACGTA  1.021 ± 0.0069
28. AATCTATATT  1.01 ± 0.025
29. AATCTGGGGG  1.01 ± 0.018
30. AATCTTCTAT  1.01 ± 0.024
31. AATGACTAAT  1.01 ± 0.017
32. AATGGCTAGG  1.01 ± 0.014
33. AATGTCTCAG  1.014 ± 0.0091
34. AATTAGGGGT  1.01 ± 0.02
35. AATTGAGTGG  1.009 ± 0.0077
36. AATTGGGCGC  1.01 ± 0.011
37. AATGAATGCA  1.004 ± 0.0014
38. AATGAATTCG  1 ± 0.031
39. AATGCGGGGG  1 ± 0.025
40. AATGCTTGGG  1.0044 ± 8.7e-05
41. AATGGTGGCC  1 ± 0.018
42. AATTGAACGG  0.9995 ± 0.0042
43. AATTGGAGGG  1 ± 0.029
44. AATTGGGTAT  1.0014 ± 0.00066
45. AATGGGAAGA  0.9987 ± 0.0043
46. AATCTGAAGA  0.9983 ± 0.0097
47. AATGATTAGT  0.998 ± 0.032
48. AATGGGGATG  0.998 ± 0.058
49. AATGGGGGGG  0.998 ± 0.034
50. AATGTCTGGG  0.9982 ± 0.0018
51. AATGTTGGTG  0.998 ± 0.018
52. AATTATCGGC  0.998 ± 0.049
53. AATTGGCTTA  0.997 ± 0.027
54. AATCTAGTGT  0.996 ± 0.019
55. AATGGAAATT  0.996 ± 0.063
56. AATGGTCGGC  0.996 ± 0.011
57. AATTGAAGGG  0.996 ± 0.015
58. AATGGGGTAA  0.995 ± 0.014
59. AATGGTGTGG  0.995 ± 0.014
60. AATGTTGGGA  0.995 ± 0.015
61. AATTCCCTTT  0.9946 ± 0.0012
62. AATCTAACGT  0.9937 ± 0.008
63. AATGTTTGTA  0.9936 ± 0.0094
64. AATGTAGTTT  0.993 ± 0.032
65. AATGCGTTCG  0.99211 ± 0.00042
66. AATGTGAATG  0.992 ± 0.021
67. AATTGGGGGT  0.992 ± 0.038
68. AATGGGGTCA  0.991 ± 0.024
69. AATGGTTTTT  0.991 ± 0.031
70. AATGCATCTA  0.989 ± 0.025
71. AATGCATGGG  0.989 ± 0.046
72. AATTAGTTGC  0.989 ± 0.016
73. AATTGGGCGA  0.989 ± 0.026
74. AATGAAAGGG  0.988 ± 0.025
75. AATGGGTTGG  0.9875 ± 0.0082
76. AATTAATATT  0.988 ± 0.021
77. AATTATGTAA  0.988 ± 0.036
78. AATGAAGGGG  0.987 ± 0.031
79. AATTAAAAAT  0.987 ± 0.017
80. AATTAGTGTG  0.987 ± 0.022
81. AATGGTCTCG  0.9842 ± 0.006
82. AATGTGTTGG  0.984 ± 0.025
83. AATTCCTTGG  0.984 ± 0.034
84. AATGAGGGCG  0.9825 ± 0.0018
85. AATGTGACAT  0.982 ± 0.033
86. AATTGATAGG  0.982 ± 0.041
87. AATGGGATGT  0.981 ± 0.017
88. AATTATTGTA  0.979 ± 0.049
89. AATGACTATG  0.976 ± 0.056
90. AATTAAGGCA  0.9756 ± 0.0065
91. AATGTAAGTT  0.975 ± 0.025
92. AATGTTAGGA  0.974 ± 0.017
93. AATGCTCTTC  0.973 ± 0.04
94. AATGATTGAA  0.968 ± 0.023
95. AATGAAGCTC  0.966 ± 0.051
96. AATCTGTGTG  0.963 ± 0.042
97. AATGGGGGCG  0.9633 ± 0.0089
98. AATGTGCAGT  0.9627 ± 0.0043
99. AATCTTGGTT  0.959 ± 0.032
100. AATTAGACGA  0.958 ± 0.034
